# Where two headings read alike, the source gives them in different places.
# Key:
# FLT-1 IgG [1] = target: FLT-1 IgG (UniProt P17948); assay: competition with 125I-VEGF165 for FLT-1-IgG, radioligand plate assay, no heparin
# KDR-IgG [2] = target: KDR-IgG (UniProt P35968); assay: competition with 125I-VEGF165 for KDR-IgG, radioligand plate assay
# FLT-1 IgG [3] = target: FLT-1 IgG (UniProt P17948); assay: competition with 125I-VEGF165 for FLT-1-IgG, radioligand plate assay
# [4] = target: KDR receptors on endothelial cells (bovine); assay: cell-based or functional assay
# KDR-IgG [5] = target: KDR-IgG (UniProt P35968); assay: competition with 125I-VEGF165 for KDR-IgG, radioligand plate assay, no heparin
# [6] = target: KDR receptors on endothelial cells (bovine); assay: cell-based or functional assay; remark: listed apart in the source
# Sequence of FLT-1 IgG (P17948 27-758): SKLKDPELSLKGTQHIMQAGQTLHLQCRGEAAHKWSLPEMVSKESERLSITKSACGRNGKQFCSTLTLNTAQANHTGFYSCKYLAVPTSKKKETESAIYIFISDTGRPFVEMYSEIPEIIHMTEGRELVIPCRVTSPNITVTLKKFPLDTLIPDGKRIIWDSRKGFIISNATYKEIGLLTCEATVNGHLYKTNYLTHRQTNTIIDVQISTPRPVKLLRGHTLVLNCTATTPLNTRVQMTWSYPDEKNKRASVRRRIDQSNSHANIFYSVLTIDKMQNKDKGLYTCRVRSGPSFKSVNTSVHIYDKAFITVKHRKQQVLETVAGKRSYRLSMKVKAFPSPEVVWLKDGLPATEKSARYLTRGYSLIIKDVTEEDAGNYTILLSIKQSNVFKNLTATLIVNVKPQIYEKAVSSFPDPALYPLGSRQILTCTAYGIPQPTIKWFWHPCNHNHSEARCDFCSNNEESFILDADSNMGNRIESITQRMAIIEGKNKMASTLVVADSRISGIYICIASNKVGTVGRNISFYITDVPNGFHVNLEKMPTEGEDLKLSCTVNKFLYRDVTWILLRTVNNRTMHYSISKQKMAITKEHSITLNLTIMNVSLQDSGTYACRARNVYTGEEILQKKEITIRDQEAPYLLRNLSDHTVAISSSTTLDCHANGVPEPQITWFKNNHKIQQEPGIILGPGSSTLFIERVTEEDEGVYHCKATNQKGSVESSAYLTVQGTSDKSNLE
# Sequence of KDR-IgG (P35968 20-764): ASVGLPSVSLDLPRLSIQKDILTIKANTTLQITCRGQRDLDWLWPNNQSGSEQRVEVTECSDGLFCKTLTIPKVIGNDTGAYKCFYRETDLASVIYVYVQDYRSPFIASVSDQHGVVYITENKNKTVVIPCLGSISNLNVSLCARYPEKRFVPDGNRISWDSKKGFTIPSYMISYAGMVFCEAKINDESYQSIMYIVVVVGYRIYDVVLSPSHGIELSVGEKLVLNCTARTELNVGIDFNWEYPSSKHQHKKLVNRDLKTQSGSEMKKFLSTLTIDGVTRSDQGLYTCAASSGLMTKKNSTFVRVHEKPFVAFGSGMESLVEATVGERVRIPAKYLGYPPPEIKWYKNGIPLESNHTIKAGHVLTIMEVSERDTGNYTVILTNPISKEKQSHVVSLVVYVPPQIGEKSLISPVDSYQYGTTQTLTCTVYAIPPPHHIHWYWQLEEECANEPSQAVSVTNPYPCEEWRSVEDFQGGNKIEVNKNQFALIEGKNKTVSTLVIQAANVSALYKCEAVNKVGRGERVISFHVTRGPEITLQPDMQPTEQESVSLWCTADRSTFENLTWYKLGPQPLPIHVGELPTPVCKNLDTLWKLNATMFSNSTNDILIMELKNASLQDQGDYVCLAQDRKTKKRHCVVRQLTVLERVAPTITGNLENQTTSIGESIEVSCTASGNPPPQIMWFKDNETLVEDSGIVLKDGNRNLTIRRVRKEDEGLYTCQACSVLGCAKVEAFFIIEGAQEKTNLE
# Sequence of KDR receptors on endothelial cells (bovine) (P12820 29-1306): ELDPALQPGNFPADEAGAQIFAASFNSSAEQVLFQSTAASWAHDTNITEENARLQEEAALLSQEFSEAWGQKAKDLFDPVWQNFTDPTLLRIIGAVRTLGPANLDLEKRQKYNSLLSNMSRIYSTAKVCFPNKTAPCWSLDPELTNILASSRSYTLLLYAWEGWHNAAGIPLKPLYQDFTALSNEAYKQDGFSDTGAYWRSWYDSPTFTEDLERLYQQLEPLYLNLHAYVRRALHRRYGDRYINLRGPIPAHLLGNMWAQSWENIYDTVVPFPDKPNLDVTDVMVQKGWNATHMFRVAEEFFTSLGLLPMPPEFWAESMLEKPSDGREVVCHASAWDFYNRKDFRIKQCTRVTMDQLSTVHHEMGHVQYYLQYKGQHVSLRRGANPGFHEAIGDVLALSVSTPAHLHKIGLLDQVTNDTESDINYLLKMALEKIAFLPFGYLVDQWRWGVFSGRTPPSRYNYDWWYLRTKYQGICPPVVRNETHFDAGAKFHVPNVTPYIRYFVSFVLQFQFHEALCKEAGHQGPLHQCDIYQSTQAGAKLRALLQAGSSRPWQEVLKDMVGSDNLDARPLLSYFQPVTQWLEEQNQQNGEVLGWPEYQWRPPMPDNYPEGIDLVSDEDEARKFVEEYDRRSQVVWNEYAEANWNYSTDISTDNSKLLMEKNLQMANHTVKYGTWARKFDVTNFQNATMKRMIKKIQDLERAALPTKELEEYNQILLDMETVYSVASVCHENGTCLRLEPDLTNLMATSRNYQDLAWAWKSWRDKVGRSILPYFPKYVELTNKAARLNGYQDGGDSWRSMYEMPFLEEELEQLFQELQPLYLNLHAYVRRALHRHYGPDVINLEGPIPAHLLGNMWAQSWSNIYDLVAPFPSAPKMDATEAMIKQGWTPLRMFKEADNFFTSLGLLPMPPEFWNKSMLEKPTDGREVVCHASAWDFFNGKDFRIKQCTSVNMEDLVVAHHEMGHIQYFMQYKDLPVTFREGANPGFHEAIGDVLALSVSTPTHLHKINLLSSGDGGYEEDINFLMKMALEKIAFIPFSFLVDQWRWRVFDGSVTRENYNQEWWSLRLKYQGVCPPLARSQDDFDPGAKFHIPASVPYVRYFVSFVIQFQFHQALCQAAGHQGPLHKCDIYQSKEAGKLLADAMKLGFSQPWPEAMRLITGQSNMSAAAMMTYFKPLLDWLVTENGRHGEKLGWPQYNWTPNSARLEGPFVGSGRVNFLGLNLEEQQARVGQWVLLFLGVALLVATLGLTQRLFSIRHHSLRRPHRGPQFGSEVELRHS
substance,measurement,setting,value
"K16A, D19T VEGF (from UniProt P15692 181-395) (ligand)",IC50,FLT-1 IgG [1],0.019 nM
same,IC50,KDR-IgG [2],2.1 ng/mL
same,IC50,FLT-1 IgG [3],0.73 ng/mL
same,"Half-Maximal Effective Concentration, Endothelial Cells",[4],53 pM
same,IC50,KDR-IgG [5],0.026 nM
same,"Half-Maximal Effective Concentration, Endothelial Cells",[6],2.05 ng/mL
